Numbering of substitutions follows the chain as printed. In names and notes the source's numbering stands.
Columns and labels:
trained participants = assay: Example 1D: blind testing of sweetness potency, aftertaste and lingering in comparison to sugar solution; assay type: in vivo, human; conditions: for sweetness potency at 8 °BX perception, greater than sugar / sweetness threshold, greater than sugar by weight: fold over sugar
Method: Based on the optimization above, the sweetness potency, the aftertaste and the lingering effect of DM08 and DM09 were tested as compared with MNEI and additional sweeteners as shown in Table 7. Test method included blind testing in 6 trained participants of each one of the proteins in comparison to sugar solution.

participants = assay: Example 1D: blind comparison of combinations at 8.0° BX perception with 3.0° BX sugar addition; assay type: in vivo, human; conditions: 8.0 °BX perception (3.0° BX sugar addition)
Method: Further combinations were tested in blind comparison of the various combinations to sugar solution in 6 participants.

healthy assessors [1] = assay: Example 1B: double-blind taste assay, sweet taste threshold in soft drink model solution; assay type: in vivo, human; conditions: for sweetness average score: grade 0-10; for sweetness potency simulating 1 °Bx perception: relative to sucrose
Method: The sweetness potency of MNEI-based proteins described herein relative to sucrose is typically in the range of 1:700 to 1:16,000. Thus, for the sake of comparison, the MNEI-based proteins and MNEI (as a reference protein) solutions were initially diluted 1:1000 and further diluted as needed. In general, the sweetness threshold of sugar for most people in soft drinks is 0.32%-1.0%. Calculations of MNEI-based proteins and MNEI (as a reference protein concentrations were carried out accordingly. The solutions that were used in this study are detailed in Table 5. The solutions were prepared as follows: for each solution, an amount sweetener (sucrose/MNEI/Designer (modified) Protein; See Table 1 for details) was added as indicated in Table 3 and the solution was completed to 100 g with water (in order to obtain 1% sugar equivalent sweetener). 20 ml of each solution was poured into tasting cup and each sample was marked for blind testing according to Table 5. To evaluate the sweetness threshold for each one of the […] solutions, a double-blind taste assay was performed. The samples tested included MNEI, two MNEI designer proteins (DM08 and DM10), sucrose and mineral water. A series of concentrations were prepared by diluting the stock solution of proteins with mineral water (pH 6.9) shortly before the taste assay (Table 3). Five healthy assessors participated in this session, 2 men and 3 women, 30-50 years old of which 3 were trained tasters. Twenty ml samples were tested randomly, in comparison to sugar solution. Before each assay, assessors were requested to rinse their mouth with water and to eat a neutral-taste cracker until no residual taste remained. The test solution was held in the mouth for at least 10 seconds. The assessors then graded the sample according to their response between 0-10; 0-no sweet perception, 10-very sweet. The sweetness detection threshold was defined as the lowest concentration at which the taster recognized the sample as sweet. Sweetness potencies are reported relative to sucrose.

healthy assessors [2] = assay: Example 1C: double-blind taste assay, sweet taste threshold in solution; assay type: in vivo, human; conditions: for sweetness potency compatible with / simulating 1 °Bx sugar solution: relative to sucrose
Method: The solutions that were used in this study are detailed in Table 4. The solutions were prepared as follows: for each solution, an amount sweetener (sucrose/MNEI/Designer Protein; See Table 1 for details) was added as indicated in Table 6 and the solution was completed to 100 g with water (in order to obtain 1% sugar equivalent sweetener). 20 ml of each solution was poured into tasting cup and each sample was marked for blind testing according to Table 6. To evaluate the sweetness threshold for each one of the […] solutions, a double-blind taste assay was performed. The samples tested included MNEI, […] ([…]), sucrose and mineral water. A series of concentrations were prepared by diluting the stock solution of proteins with mineral water (pH 6.9) shortly before the taste assay (Table 6). Six healthy assessors participated in this session, 5 men and 1 woman, 30-75 years old of which half were trained tasters The sweetness detection threshold was defined as the lowest concentration at which the taster recognized the sample as sweet. Sweetness potencies are reported relative to sucrose. Twenty ml samples were tested randomly, in comparison to sugar solution. Before each assay, assessors were requested to rinse their mouth with water and to eat a neutral-taste cracker until no residual taste remained. The test solution was held in the mouth for at least 10 seconds. The assessors then graded the sample according to their response between 0-10; 0-no sweet perception, 10-very sweet. The sweetness detection threshold was defined as the lowest concentration at which the taster recognized the sample as sweet. Sweetness potencies are reported relative to sucrose.

[3] = single substitution in MNEI, Zheng et al; cited from earlier work
[4] = single substitution in MNEI, Zheng et al; cited from earlier work; remark: listed apart in the source
[5] = Structural thermal stability (Tm); assay type: physicochemical
Excerpt: The term “structural thermal stability” or “thermal stability” as used herein refers to the ability of the modified protein to retain its 3D structure at temperatures above that of the reference protein. The 3D structural stability of a protein can be measured by any method known in the art, such as Circular Dichroism (CD), or thermal shift assays such as Differential Scanning Fluorimetry (DSF) or Differential Scanning calorimetry (DSC). The 3D structure of a protein may have an effect on the function of the protein.

[6] = Sweetness potency relative to MNEI (Table 10); assay type: in vivo; conditions: MNEI = 1.0
Shelf life stability = assay type: physicochemical; conditions: at 4° C.
Method: In some embodiments the modified protein has improved shelf life relative to the reference protein. Improved shelf life refers to no sensed change in the sweetness (function) or physical deterioration of a product comprising the composition (e.g. color change, phase separation etc.) after exposure of the product to any temperature up to 150° C., at times, to any temperature between 4° C. to 150°, or to 100°.

[7] = dilution factor 1:500, grade 0-10
[8] = dilution factor 1:1,000, grade 0-10
[9] = dilution factor 1:2,000, grade 0-10

OC[C@H]1O[C@@](CO)(O[C@H]2O[C@H](CO)[C@@H](O)[C@H](O)[C@H]2O)[C@@H](O)[C@@H]1O [Sucrose, reference compound]
Estimated threshold concentration (trained participants; ratio relative to sucrose, 6 trained participants): 1
Additional After Taste & Notes (trained participants; single sweetener (Table 7)): No
Late onset (trained participants; single sweetener (Table 7)): No
Lingering After Taste (trained participants; single sweetener (Table 7)): No
After Taste (participants): No
Late onset (participants): No
Lingering (participants): No
sweetness average score (healthy assessors [1]; 0.5% sucrose solution, 5 assessors): 0.63±0.6
sweetness average score (healthy assessors [1]; 1% sucrose solution, 5 assessors): 1.25±0.9
sweetness average score (healthy assessors [2]; 0.5% sucrose solution, grade 0-10, 6 assessors): 1.9±0.9
sweetness average score (healthy assessors [2]; 1% sucrose solution, grade 0-10, 6 assessors): 3.8±1.9

B1: E2N: MNEI with amino acid substitution E2N, CPD model; also reported by Zheng et al (protein)
chain: GNWEIIDIGPFTQNLGKFAVDEENKIGQYGRLTFNKVIRPCMKKTIYENEGFREIKGYEYQLYVYASDKLFRADISEDYKTRGRKLLRFNGPVPPP
modifications: Monelin MNEI
notes: MNEI with amino acid substitution E2N, CPD model; also reported by Zheng et al
improved sweetness [3]: 3 fold
stability [4]: slight reduced stability

B2: DM12: modified MNEI protein, SEQ ID NO: 20, I8T/C41T as printed in Table 4 (protein)
chain: B1 chain with N2E, I8T, C41T, R84L
modifications: DM12
sweetness average score (healthy assessors [2]; all dilution factors (1:500, 1:1,000, 1:2,000), no noticeable dose response): ~1.0
Tm (° C.) Structural thermal stability [5]: 65 °C
Sweetness Potency relative to MNEI [6]: 0.5

B3: DM11: modified MNEI protein, SEQ ID NO: 19, I8T/N14K/C41T/R84L (protein)
chain: B1 chain with N2E, I8T, N14K, C41T, R84L
modifications: DM11
sweetness average score (healthy assessors [2]; [7]): 0.0±0.0
sweetness average score (healthy assessors [2]; [8]): 0.3±0.8
sweetness average score (healthy assessors [2]; [9]): 0.4±0.9
sweetness potency compatible with / simulating 1 °Bx sugar solution (healthy assessors [2]): below 500
Tm (° C.) Structural thermal stability [5]: 69 °C
Sweetness Potency relative to MNEI [6]: 0.2

B4: DM03: modified MNEI protein, SEQ ID NO: 15, E2N/I8T/N14K/E23A/Q28K/R31T/N35T/C41T/Y65K/S67N/R84L (protein)
chain: B1 chain with I8T, N14K, E23A, Q28K, R31T, N35T, C41T, Y65K, S67N, R84L
modifications: DM3
Tm (° C.) Structural thermal stability [5]: 81.5 °C
Sweetness Potency relative to MNEI [6]: Not sweet at all

B5: DM09: modified MNEI protein, SEQ ID NO:17, E2N/E23A/Y65R (protein)
chain: B1 chain with E23A, Y65R
modifications: DM9
sweetness potency at 8 °BX perception, greater than sugar (trained participants): 4,000
sweetness threshold, greater than sugar by weight (trained participants): 15,000
Tm (° C.) Structural thermal stability [5]: 81 °C
melting temperature compared with MNEI ([5]; summary of Table 10): at least equal or improved
shelf life stability (Shelf life stability): At least 6 months
Sweetness Potency relative to MNEI [6]: 7.5

B6: MNEI: single chain Monellin (MNEI) reference protein, SEQ ID NO:5, 96 amino acids (protein)
chain: B1 chain with N2E
modifications: Monelin MNEI
Lingering After Taste (trained participants; single sweetener (Table 7)): Sweet lingering
sweetness average score (healthy assessors [1]; dilution factor 1:1,000): 2.2±1.0
sweetness average score (healthy assessors [1]; dilution factor 1:2,000): 0.98±0.4
sweetness average score (healthy assessors [1]; dilution factor 1:4,000): 0.68±0.2
sweetness potency simulating 1 °Bx perception (healthy assessors [1]): about 2,000
sweetness average score (healthy assessors [2]; [7]): 4.7±3.2
sweetness average score (healthy assessors [2]; [8]): 2.5±1.4
sweetness average score (healthy assessors [2]; [9]): 1.0±0.7
sweetness potency compatible with / simulating 1 °Bx sugar solution (healthy assessors [2]): about 1,000
Tm (° C.) Structural thermal stability [5]: 69 °C
shelf life stability (Shelf life stability): At least 12 months
Sweetness Potency relative to MNEI [6]: 1.0

B7: DM08: modified MNEI protein, SEQ ID NO:16, E2N/E23V/Y65K (protein)
chain: B1 chain with E23V, Y65K
modifications: DM8
sweetness potency at 8 °BX perception, greater than sugar (trained participants): 3,500
sweetness threshold, greater than sugar by weight (trained participants): 10,000
Additional After Taste & Notes (trained participants; single sweetener (Table 7)): Low bitterness
Lingering After Taste (trained participants; single sweetener (Table 7)): Sweet lingering
sweetness potency simulating 1 °Bx perception (healthy assessors [1]): about 10,000
Tm (° C.) Structural thermal stability [5]: 81 °C
shelf life stability (Shelf life stability): At least 6 months
Sweetness Potency relative to MNEI [6]: 6.0

B8: DM10: modified MNEI protein, SEQ ID NO: 18, Q28K/R31T/N35T/S67N (protein)
chain: B1 chain with N2E, Q28K, R31T, N35T, S67N
modifications: DM10
sweetness potency simulating 1 °Bx perception (healthy assessors [1]): about 1,000
Tm (° C.) Structural thermal stability [5]: 71 °C
Sweetness Potency relative to MNEI [6]: 0.5

Reference: patent US11945844B2, “Taste and flavor-modifier proteins” (AMAI PROTEINS LTD., priority 2018, dated 2024)
